B1: OR4K15 (parent)
chain: GUUAACGGUCAUAGGCCAUGGAAACUAGGAGCACCAUUUCGCUGCCAGUGAAGAAAUGAACAAAGAAAAUCUGGGCCAGGCAGGCAUCAAAAGAAAUAGUCUUGCGCUCAACCAGAAAGUCUGUAAUCAUUUUAAGGGUA

Variants of: B1
Experiment: self-cleavage, relative activity (ratio to wild type); higher = more cleavage; in vitro, sequencing; the parent is a self-cleaving ribozyme

**Q.** With GUUAACGGUCAUAGGCCAUGGAAACUAGGAGCACCAUUUCGCUGCCAGUGAAGAAAUGAACAAAGAAAAUCUGGGCCAGGCAGGCAUCAAAAGAAAUAGUCUUGCGCUCAACCAGAAAGUCUGUAAUCAUAUUAAGGCUA as the variant, how does the self-cleavage read?
**A.** 1.83

**Q.** Which self-cleavage does the source give for GUUAACGGUCAUAGGCCAUGGAAACUAGGUGCACCAUUUCGCUGCCAGUGAAGAAAUGAACAAAGAAAAUCUGGGCCAGGCUGGCAUCAAAAGAAAUAGUCUUGCGCUCAACCAGAAAGUCUGUAAUCAUUUUAAGGGUA here?
**A.** 0.23

**Q.** Which self-cleavage does the source give for GUUAACGGUCAUAGGCCAUGAAAACUAGGAGCACCAUUUCGCUGCCAGUGAAGAAAUGAACAAAGAAAAUCUGGGCCAGGCAGGCAUCAAAAGAACUAGUCUUGCGCUCAACCAGAAAGUCUGUAAUCAUUUUAAGGGUA here?
**A.** 0.6

**Q.** For GUUAACGGUCAUAGGCCAUGGAAACUAGGAGCACCAUUUCGCUGCCAGUGAAGAAAUGAACAAAGAAAAUCUGGGCCAGGCAGGCAUCGAAAGAAAUAGUCUUGCGCUCAGCCAGAAAGUCUGUAAUCAUUUUAAGGGUA, which self-cleavage is on record?
**A.** 0.02

**Q.** With GUUAACGGUCAUAGGCCAUGGAAACUAGGGGCACCAUUUCGCAGCCAGUGAAGAAAUGAACAAAGAAAAUCUGGGCCAGGCAGGCAUCAAAAGAAAUAGUCUUGCGCUCAACCAGAAAGUCUGUAAUCAUUUUAAGGGUA as the variant, how does the self-cleavage read?
**A.** 1.01

**Q.** For GUUGACGGUCAUAGGCCAUGGAAACUAGGAGCACCAUUUCGCUGCCAGUGAAGAAAUGAACAAAGAAAAUCUGGGCCAGGCAGGCAUCAAAAGAAAUAGUCUUGCGCUCAACCAGAAAGUCUGUAGUCAUUUUAAGGGUA, which self-cleavage is on record?
**A.** 1.09

**Q.** Which self-cleavage does the source give for GUUAACGGUCAUAGGCCAUGGAAACUAGGAGCACCAUUUCGCUGCCAGUGAAGAAAUGAUCAAAGAAAAUCUGGGCCAGGCAAGCAUCAAAAGAAAUAGUCUUGCGCUCAACCAGAAAGUCUGUAAUCAUUUUAAGGGUA here?
**A.** 1.65

**Q.** With GUUAACGGUCAUAGGCCAUGGAAACUAGGAGCACCAUUUUGCUGCCAGUGAAGAAAUGAACAAAGAAAAUCUGGGCCAGGCAGGCAUCAAAAGAAAUAAUCUUGCGCUCAACCAGAAAGUCUGUAAUCAUUUUAAGGGUA as the variant, how does the self-cleavage read?
**A.** 0.32

**Q.** With GUUAACGGUCAUAGGCCAUGGAAACUAGGAGCACCAUUUCGCUGCCAGUGAAGAAAUGAACAAAGAAAAUCUGGGCCAGGCAGGCAUCAAAAGAAACAGUCUUGCGCUCAACCAGAAAGUCUGUAAUCAUUUUUAGGGUA as the variant, how does the self-cleavage read?
**A.** 1.69

**Q.** Which self-cleavage does the source give for GUUUACGGUCAUAGGCCAUGGAAACUAGGAGCACCAUUUCGCUGCCAGUGAAGAAAUGAACAAAGAAAAUCUGGGCCAGGCAGGCAUCAAAAGAAAUAGUCUUGCGCUCAACCUGAAAGUCUGUAAUCAUUUUAAGGGUA here?
**A.** 0.22

**Q.** For GUUAACGGUCAUAGGCCAUGGAAACUAGGAGCACCAUUUCGCUGCCAGUGAAGAAAUGAACAAAGAAAAUCUGGGCCAGGCAGGCAUCAAAGGAAAUAGUCUUGCGCUCAACCAGAAAGUCUGUAAUCGUUUUAAGGGUA, which self-cleavage is on record?
**A.** 0.74

**Q.** Which self-cleavage does the source give for GUUAACGGUCAUAGGCCAUGGAAACUAGGAGCACCACUUCGCUGCCAGUGAAGAUAUGAACAAAGAAAAUCUGGGCCAGGCAGGCAUCAAAAGAAAUAGUCUUGCGCUCAACCAGAAAGUCUGUAAUCAUUUUAAGGGUA here?
**A.** 1.57

**Q.** For GUUAACGGUCAUAGGCCAUGGAAACUAGGAGCACCACUUCGCUGCCAGUGAAGAAAUGAACAAAGAAAAUCUGGGCCAGGCAGGCAUCAAAAGAAAUAGUCUUGCGCUCAACCAGAUAGUCUGUAAUCAUUUUAAGGGUA, which self-cleavage is on record?
**A.** 1.11

**Q.** For GUUUACGGUCAUAGGCCAUGGAAACUAGGUGCACCAUUUCGCUGCCAGUGAAGAAAUGAACAAAGAAAAUCUGGGCCAGGCAGGCAUCAAAAGAAAUAGUCUUGCGCUCAACCAGAAAGUCUGUAAUCAUUUUAAGGGUA, which self-cleavage is on record?
**A.** 1.05

**Q.** For GUUAACGGUCAUAGGCCAUGGAGACUAGGAGCACCAUUUCGCUGCCAGUGAAGAAAUGAACAAAGAAAAUCUGGGCCAGGCAGGCAUCAAUAGAAAUAGUCUUGCGCUCAACCAGAAAGUCUGUAAUCAUUUUAAGGGUA, which self-cleavage is on record?
**A.** 1.57

**Q.** For GUUAAUGGUCAUAGGCCAUGGAAACUAGGAGCACCAUUUCGCUGCCAGUGAAGAAAUGAACAAAGAAAAUCUGGGCCAGGCAGGCAUCAAAAGAAAUAGUCUUGCGCUCAACCAGAAAGUCUGUAACCAUUUUAAGGGUA, which self-cleavage is on record?
**A.** 0.57

**Q.** Which self-cleavage does the source give for GUUAACGGUCAUAGGCCAUGGAAACUAGGAGCACCAUUUCGCUGCCAGUGAAGAAAAGAACAAAGAAAAUCUGGGCCAGGCAGGCAUCAAAAGAAAUAGUCUUGCGCUCAACCAGAAAGUCCGUAAUCAUUUUAAGGGUA here?
**A.** 0.75

**Q.** With GUUAACGGUCAUAGGCCAUGGAAACUAGGAGCACCAUUUCGCUGCCAGUGAAGAAAUGAACAAAGAAAAUCUGAGCCAGGCAGGCAUCAAAAGAAAUAGUCUUGCGCUCAACCAGAAAGUCUGUAAUCAUCUUAAGGGUA as the variant, how does the self-cleavage read?
**A.** 0.19

**Q.** Which self-cleavage does the source give for GUUAACGGCCAUAGGCCAUGGAAACUAGGAGCACCAUUUCGCUGCCAGUGAAGAAAUGAACAAAGAGAAUCUGGGCCAGGCAGGCAUCAAAAGAAAUAGUCUUGCGCUCAACCAGAAAGUCUGUAAUCAUUUUAAGGGUA here?
**A.** 1.85

**Q.** Which self-cleavage does the source give for GUUAACGGUCAUAGGCCAUGGAAGCUAGGAGCACCAUUUCGCUGCCAGUGAAGAAAUGAACAAAGAAAAUCUGGGCCAGGCAGGCAUCAAAAGAAAUAGUCUUGCGCUCAACCAGAAAGUCUGUAAACAUUUUAAGGGUA here?
**A.** 1.53

**Q.** For GUUAACGGUCAUAGGCCAUGGAAACUAGGAGCACCAUUUCGCUGCCAGUGAAGAAAUGACCAAAGAAAGUCUGGGCCAGGCAGGCAUCAAAAGAAAUAGUCUUGCGCUCAACCAGAAAGUCUGUAAUCAUUUUAAGGGUA, which self-cleavage is on record?
**A.** 2

Source: the RNAGym collection of RNA variant scans (doi:10.7554/elife.90254)
